Experimental findings from the Human Domainome abundance scans (Beltran et al. 2025) are described below.

± gives the uncertainty stated by the source.

A short description of this data set: abundance fitness (aPCA) (normalised: wild type 0, dead -1); higher = more abundant; growth selection in yeast, the domain comes from the species named. The following applies: Homo sapiens.
Substance “SAFB-like transcription modulator I66S, Q9NWH9” yielded an abundance fitness of -0.259 ± 0.083.
As for “SAFB-like transcription modulator I66T, Q9NWH9”, the abundance fitness was -0.063 ± 0.12.
As to “SAFB-like transcription modulator I66V, Q9NWH9”, the abundance fitness is -0.036 ± 0.084.
Turning to “SAFB-like transcription modulator I66W, Q9NWH9”, the abundance fitness was -0.451 ± 0.18.
“SAFB-like transcription modulator I66Y, Q9NWH9” displayed an abundance fitness of 0.007 ± 0.16.
The figure for “SAFB-like transcription modulator K20A, Q9NWH9” is -0.284 ± 0.039.
Regarding “SAFB-like transcription modulator K20C, Q9NWH9”, the abundance fitness is -0.115 ± 0.043.
For “SAFB-like transcription modulator K20D, Q9NWH9”, the abundance fitness is -0.413 ± 0.11.
For “SAFB-like transcription modulator K20E, Q9NWH9”, the abundance fitness is -0.354 ± 0.13.
In turn, “SAFB-like transcription modulator K20F, Q9NWH9” yielded an abundance fitness of -0.366 ± 0.16.
“SAFB-like transcription modulator K20G, Q9NWH9” registered an abundance fitness of -0.638 ± 0.082.
Turning to “SAFB-like transcription modulator K20H, Q9NWH9”, the abundance fitness turned out to be 0.005 ± 0.12.
The substance “SAFB-like transcription modulator K20I, Q9NWH9” had an abundance fitness of 0.049 ± 0.11.
Substance “SAFB-like transcription modulator K20L, Q9NWH9” yielded an abundance fitness of -0.21 ± 0.078.
“SAFB-like transcription modulator K20M, Q9NWH9” had an abundance fitness of -0.035 ± 0.075.
With “SAFB-like transcription modulator K20N, Q9NWH9”, the abundance fitness was -0.333 ± 0.17.
“SAFB-like transcription modulator K20Q, Q9NWH9” registered an abundance fitness of -0.193 ± 0.091.
“SAFB-like transcription modulator K20S, Q9NWH9”: the abundance fitness was -0.244 ± 0.036.
“SAFB-like transcription modulator K20T, Q9NWH9”: the abundance fitness was -0.212 ± 0.053.
The figure for “SAFB-like transcription modulator K20V, Q9NWH9” is -0.252 ± 0.072.
The figure for “SAFB-like transcription modulator K20W, Q9NWH9” is -0.284 ± 0.095; for “SAFB-like transcription modulator K20Y, Q9NWH9” it is -0.454 ± 0.3.
Substance “SAFB-like transcription modulator K21A, Q9NWH9” gave an abundance fitness of -0.182 ± 0.033.
Take “SAFB-like transcription modulator K21C, Q9NWH9”: the abundance fitness is -0.203 ± 0.058.
Substance “SAFB-like transcription modulator K21E, Q9NWH9” showed an abundance fitness of -0.195 ± 0.064.
The figure for “SAFB-like transcription modulator K21F, Q9NWH9” is -0.349 ± 0.077.
The figure for “SAFB-like transcription modulator K21G, Q9NWH9” is -0.265 ± 0.046; for “SAFB-like transcription modulator K21H, Q9NWH9” it is -0.33 ± 0.091; for “SAFB-like transcription modulator K21L, Q9NWH9” it is -0.324 ± 0.041.
Take “SAFB-like transcription modulator K21N, Q9NWH9”: the abundance fitness was -0.491 ± 0.094.
Substance “SAFB-like transcription modulator K21P, Q9NWH9” registered an abundance fitness of -0.312 ± 0.057.
For “SAFB-like transcription modulator K21Q, Q9NWH9”, the abundance fitness is -0.336 ± 0.052.
Turning to “SAFB-like transcription modulator K21S, Q9NWH9”, the abundance fitness was -0.198 ± 0.056.
The substance “SAFB-like transcription modulator K21T, Q9NWH9” came in with an abundance fitness of -0.355 ± 0.064.
“SAFB-like transcription modulator K21V, Q9NWH9” gave an abundance fitness of -0.375 ± 0.04.
Take “SAFB-like transcription modulator K21W, Q9NWH9”: the abundance fitness was -0.982 ± 0.12.
“SAFB-like transcription modulator K21Y, Q9NWH9” showed an abundance fitness of -0.667 ± 0.076.
In the case of “SAFB-like transcription modulator K31A, Q9NWH9”, the abundance fitness was -0.352 ± 0.049.
“SAFB-like transcription modulator K31C, Q9NWH9” gave an abundance fitness of -0.223 ± 0.06.
“SAFB-like transcription modulator K31E, Q9NWH9” displayed an abundance fitness of -0.219 ± 0.062.
Substance “SAFB-like transcription modulator K31F, Q9NWH9” had an abundance fitness of -0.288 ± 0.037.
The substance “SAFB-like transcription modulator K31G, Q9NWH9” came in with an abundance fitness of -0.859 ± 0.038.
“SAFB-like transcription modulator K31H, Q9NWH9”: the abundance fitness is -0.102 ± 0.083.
The figure for “SAFB-like transcription modulator K31I, Q9NWH9” is 0.131 ± 0.064; for “SAFB-like transcription modulator K31L, Q9NWH9” it is -0.155 ± 0.042; for “SAFB-like transcription modulator K31M, Q9NWH9” it is -0.241 ± 0.068.
“SAFB-like transcription modulator K31N, Q9NWH9” had an abundance fitness of -0.629 ± 0.075.
Turning to “SAFB-like transcription modulator K31P, Q9NWH9”, the abundance fitness is -1.16 ± 0.075.
The figure for “SAFB-like transcription modulator K31Q, Q9NWH9” is -0.069 ± 0.075; for “SAFB-like transcription modulator K31R, Q9NWH9” it is -0.184 ± 0.047.
“SAFB-like transcription modulator K31S, Q9NWH9”: the abundance fitness is -0.613 ± 0.061.
“SAFB-like transcription modulator K31T, Q9NWH9” displayed an abundance fitness of -0.143 ± 0.043.
The figure for “SAFB-like transcription modulator K31V, Q9NWH9” is -0.056 ± 0.053.
In turn, “SAFB-like transcription modulator K31W, Q9NWH9” registered an abundance fitness of -0.237 ± 0.053.
“SAFB-like transcription modulator K31Y, Q9NWH9” displayed an abundance fitness of -0.213 ± 0.075.
The figure for “SAFB-like transcription modulator K35A, Q9NWH9” is -0.08 ± 0.072.
The substance “SAFB-like transcription modulator K35C, Q9NWH9” registered an abundance fitness of -0.528 ± 0.23.
Regarding “SAFB-like transcription modulator K35D, Q9NWH9”, the abundance fitness is -0.046 ± 0.097.
“SAFB-like transcription modulator K35E, Q9NWH9”: the abundance fitness is -0.013 ± 0.083.
As to “SAFB-like transcription modulator K35F, Q9NWH9”, the abundance fitness was -0.267 ± 0.17.
For the substance “SAFB-like transcription modulator K35G, Q9NWH9”, the abundance fitness was found to be 0.023 ± 0.051.
The substance “SAFB-like transcription modulator K35I, Q9NWH9” registered an abundance fitness of -0.067 ± 0.037.
The substance “SAFB-like transcription modulator K35L, Q9NWH9” yielded an abundance fitness of -0.44 ± 0.11.
“SAFB-like transcription modulator K35M, Q9NWH9” returned an abundance fitness of -0.035 ± 0.079.
Substance “SAFB-like transcription modulator K35P, Q9NWH9” showed an abundance fitness of -0.943 ± 0.14.
As to “SAFB-like transcription modulator K35Q, Q9NWH9”, the abundance fitness was 0.052 ± 0.053.
